Reference: the Human Domainome abundance scans (Beltran et al. 2025)
± gives the uncertainty stated by the source.

B1: Max-interacting protein 1, residues 70 to 120; numbered along this chain, P50539 (parent)
chain: STHNELEKNRRAHLRLCLERLKVLIPLGPDCTRHTTLGLLNKAKAHIKKLE

Variants of: B1
Assay: abundance fitness (aPCA) (normalised: wild type 0, dead -1); higher = more abundant; growth selection in yeast, the domain comes from the species named
Settings: Homo sapiens

Q: With STHNELEKNRRAHLRLCLERLKVLIPLGPDCTRHTTLGLLNKAKAHIKKLI [E51I] as the variant, how does the abundance fitness read?
A: -0.459 ± 0.47

Q: With STHNELEKNRRAHLRLCLERLKVLIPLGPDCTRHTTLGLLNKAKAHIKKLD [E51D] as the variant, how does the abundance fitness read?
A: -0.197 ± 0.25

Q: Which abundance fitness does the source give for STHNELEKNRRAHLRLCLERLKVLIPLGPDCTRHTTLGLLNKAKAHIKKLG [E51G] here?
A: 0.355 ± 0.15

Q: Which abundance fitness does the source give for STHNELEKNRRAHLRLCLERLKVLIPLGPDCTRHTTLGLLNKAKARIKKLE [H46R] here?
A: -0.055 ± 0.079

Q: With STHNELEKNRRAHLRLCLERLKVLFPLGPDCTRHTTLGLLNKAKAHIKKLE [I25F] as the variant, how does the abundance fitness read?
A: -0.141 ± 0.13

Q: For STHNELEKNRRAHLRLCLERLKVLWPLGPDCTRHTTLGLLNKAKAHIKKLE [I25W], which abundance fitness is on record?
A: 0.319 ± 0.097

Q: With STHNELEKNRRAHLRLCLERLKVLIPLGPNCTRHTTLGLLNKAKAHIKKLE [D30N] as the variant, how does the abundance fitness read?
A: 0.229 ± 0.085

Q: For STHNELEKNRRAHLRLCLERLKVLIPLGPICTRHTTLGLLNKAKAHIKKLE [D30I], which abundance fitness is on record?
A: 0.151 ± 0.084

Q: Which abundance fitness does the source give for STHNELEKNRRAHLRLCLERLKVLIPLGPDCTLHTTLGLLNKAKAHIKKLE [R33L] here?
A: -0.438 ± 0.086

Q: With STHNELEKNRRAHLRLCLERLKVLIPLGPDCTAHTTLGLLNKAKAHIKKLE [R33A] as the variant, how does the abundance fitness read?
A: -0.338 ± 0.096

Q: Which abundance fitness does the source give for STHNELEKNRRAHLRLCLERLKVLIPLGPDCTPHTTLGLLNKAKAHIKKLE [R33P] here?
A: -0.225 ± 0.13

Q: For STHNELEKNRRAHLRLCLERLKVLIPLGPDCTYHTTLGLLNKAKAHIKKLE [R33Y], which abundance fitness is on record?
A: -0.107 ± 0.14

Q: Which abundance fitness does the source give for STHNELEKNRRAHLRLCLERLKVLIPLGPDCTRHTTLELLNKAKAHIKKLE [G38E] here?
A: -0.185 ± 0.1

Q: Which abundance fitness does the source give for STHNELEKNRRAHLRLCLERLKVLIPLGPDCTRHTTLGLLNKVKAHIKKLE [A43V] here?
A: -0.046 ± 0.086

Q: For STHNELEKNRRAHLRLCLERLKVLIPLGPDCTRHTTLGLLNKPKAHIKKLE [A43P], which abundance fitness is on record?
A: -0.53 ± 0.13

Q: For STHNESEKNRRAHLRLCLERLKVLIPLGPDCTRHTTLGLLNKAKAHIKKLE [L6S], which abundance fitness is on record?
A: 0.096 ± 0.1

Q: Which abundance fitness does the source give for STHNETEKNRRAHLRLCLERLKVLIPLGPDCTRHTTLGLLNKAKAHIKKLE [L6T] here?
A: -0.025 ± 0.11

Q: For CTHNELEKNRRAHLRLCLERLKVLIPLGPDCTRHTTLGLLNKAKAHIKKLE [S1C], which abundance fitness is on record?
A: -0.216 ± 0.17

Q: Which abundance fitness does the source give for GTHNELEKNRRAHLRLCLERLKVLIPLGPDCTRHTTLGLLNKAKAHIKKLE [S1G] here?
A: -0.21 ± 0.16

Q: For RTHNELEKNRRAHLRLCLERLKVLIPLGPDCTRHTTLGLLNKAKAHIKKLE [S1R], which abundance fitness is on record?
A: -0.573 ± 0.26

Q: With DTHNELEKNRRAHLRLCLERLKVLIPLGPDCTRHTTLGLLNKAKAHIKKLE [S1D] as the variant, how does the abundance fitness read?
A: -0.475 ± 0.35

Q: For STHNELEHNRRAHLRLCLERLKVLIPLGPDCTRHTTLGLLNKAKAHIKKLE [K8H], which abundance fitness is on record?
A: -0.205 ± 0.14

Q: For STHNELEKNRRAHLRLCLERLKVLIPLGPDCTRHWTLGLLNKAKAHIKKLE [T35W], which abundance fitness is on record?
A: 0.189 ± 0.097

Q: For STHNELEKNRRAHLRLCLERLKVLIPLGPDCTRHPTLGLLNKAKAHIKKLE [T35P], which abundance fitness is on record?
A: -0.103 ± 0.1

Q: Which abundance fitness does the source give for STHNELEKNRRAHLRLCLERLKVLIPLGPDCTRHTTFGLLNKAKAHIKKLE [L37F] here?
A: 0.105 ± 0.15

Q: With STHNELEKNRRAHLRLCLERLKVLIPLGPDCTRHTTAGLLNKAKAHIKKLE [L37A] as the variant, how does the abundance fitness read?
A: -0.026 ± 0.093

Q: Which abundance fitness does the source give for STHNELEKNRRAHLRLCLERLKVLIPLGPDCTRHTTDGLLNKAKAHIKKLE [L37D] here?
A: -0.375 ± 0.15

Q: Which abundance fitness does the source give for STHNELEKNRRAHLRLCLERLKVLIPLGPDCTRHTTRGLLNKAKAHIKKLE [L37R] here?
A: 0.253 ± 0.089

Q: For STHNELEKNRRAHLRLCLERLKFLIPLGPDCTRHTTLGLLNKAKAHIKKLE [V23F], which abundance fitness is on record?
A: -0.191 ± 0.13

Q: For STHNELEKNRRAHLRLCLERLKALIPLGPDCTRHTTLGLLNKAKAHIKKLE [V23A], which abundance fitness is on record?
A: 0.488 ± 0.11

Q: Which abundance fitness does the source give for STHNELEKNRRAHLRLCLERLKHLIPLGPDCTRHTTLGLLNKAKAHIKKLE [V23H] here?
A: 0.455 ± 0.13

Q: For STHNELEKNRRAHLRLCLERLKVLIPLGPDCTRHTTLGLLKKAKAHIKKLE [N41K], which abundance fitness is on record?
A: 0.109 ± 0.33

Q: With STHNELEKNRRAHLRLCLERLKVLIPLGPDCTRHTTLGLLIKAKAHIKKLE [N41I] as the variant, how does the abundance fitness read?
A: -0.631 ± 0.33

Q: Which abundance fitness does the source give for STHNELEKNRRAHLRLCLERLKVLIPLGPDCTRHTTLGLLSKAKAHIKKLE [N41S] here?
A: -0.09 ± 0.14

Q: Which abundance fitness does the source give for STHNELEKNRRAHLRLCLERLKVLIPLGPDCTRHTTLGLLNKAKAHIKSLE [K49S] here?
A: -0.278 ± 0.1

Q: With STHNELEKNRRAHLRLCLERLKVLIPLGPDCTRHTTLGLLNKAKAHIKHLE [K49H] as the variant, how does the abundance fitness read?
A: -1.02 ± 0.24

Q: With STHNELEKNRRAHLRLCLERLKVLIPLGPDCTRHTTLGLLNKAKAHIKMLE [K49M] as the variant, how does the abundance fitness read?
A: -0.692 ± 0.13

Q: Which abundance fitness does the source give for STHNELEKNRRAHLRLCHERLKVLIPLGPDCTRHTTLGLLNKAKAHIKKLE [L18H] here?
A: -1.12 ± 0.28

Q: For STHNELEKNRRAHLRLCPERLKVLIPLGPDCTRHTTLGLLNKAKAHIKKLE [L18P], which abundance fitness is on record?
A: -0.542 ± 0.12

Q: With STHNELEKNRRRHLRLCLERLKVLIPLGPDCTRHTTLGLLNKAKAHIKKLE [A12R] as the variant, how does the abundance fitness read?
A: -0.327 ± 0.086

Q: With STHNELEKNRTAHLRLCLERLKVLIPLGPDCTRHTTLGLLNKAKAHIKKLE [R11T] as the variant, how does the abundance fitness read?
A: -0.352 ± 0.12

Q: For STHNELEKNRHAHLRLCLERLKVLIPLGPDCTRHTTLGLLNKAKAHIKKLE [R11H], which abundance fitness is on record?
A: -0.13 ± 0.13

Q: Which abundance fitness does the source give for STHNELEKNRRAHLRLCLERLKVLIPLGPDCERHTTLGLLNKAKAHIKKLE [T32E] here?
A: -0.354 ± 0.096

Q: For STHNELEKNRRAHLRLCLERLKVLIPLGPDCSRHTTLGLLNKAKAHIKKLE [T32S], which abundance fitness is on record?
A: -0.109 ± 0.088

Q: With STHNELEKNRRAHLRLCLERLKVLIPLGPDCWRHTTLGLLNKAKAHIKKLE [T32W] as the variant, how does the abundance fitness read?
A: 0.033 ± 0.095

Q: For STHNELEKNRRAHLRLCLERLKVLIPLGPDCTRHTTLGLLNKAKAHVKKLE [I47V], which abundance fitness is on record?
A: -0.312 ± 0.096

Q: Which abundance fitness does the source give for STHNELEKNRRAHLRLCLERLKVLIPLGPDCTRHTTLGWLNKAKAHIKKLE [L39W] here?
A: 0.127 ± 0.096

Q: For STHNELEKNRRALLRLCLERLKVLIPLGPDCTRHTTLGLLNKAKAHIKKLE [H13L], which abundance fitness is on record?
A: 0.02 ± 0.092

Q: Which abundance fitness does the source give for STHNELEKNRRAALRLCLERLKVLIPLGPDCTRHTTLGLLNKAKAHIKKLE [H13A] here?
A: -0.515 ± 0.097

Q: For STHNELEKNRRAHLRLCLERLKVLIPLGPDCTRHTTLGLLNKAKAHIKKGE [L50G], which abundance fitness is on record?
A: -0.317 ± 0.088

Q: For STHNELEKNRRAHLRLCLERLKVLIPLGPDCTRHTTLGLLNKAKAHIKKNE [L50N], which abundance fitness is on record?
A: -0.617 ± 0.33
